What was measured:
[1] = biological target: PCV2-His-ΔN45 capsid protein (porcine circovirus type 2) (UniProt O56129); assay: crystal structure; PCV2-His-ΔN45 at ~12 mg/ml, crystals from 2 M ammonium sulfate, 0.1 M citric acid pH 4.6; one icosahedral particle per asymmetric unit; 2.8 Å
[2] = biological target: full-length PCV2 capsid protein (porcine circovirus type 2) (UniProt O56129); assay: cryo-EM structure; in vitro assembled full-length PCV2 VLP, 300 kV Titan Krios, icosahedral reconstruction at 4.12 Å

Substance | stoichiometry N [1] [subunits] | stoichiometry N [2] [subunits]
PCV2-His-ΔN45 capsid protein (from UniProt O56129 45-233) (domain or fragment) | 60 | –
full-length PCV2 capsid protein (from UniProt O56129 1-233) (natural protein) | – | 60

From article PMC6415871
